± gives the uncertainty stated by the source.
Assay: protein stability index of a GFP-peptide fusion (yeast GPS) (PSI 1-4); higher = more stable; sorted into four equal gates, so the index is relative within each strain
Summary of the method: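 Sequencing reads from sorted gates were used to score each peptide. The library consisted of tiled 17-residue yeast protein peptides fused downstream of GFP on a Cherry-expressing plasmid, pooled and carried in yeast. Mid-log cultures in leucine-free medium were split into four equal gates by GFP/Cherry ratio, and each gate's plasmids were PCR-amplified and Illumina-sequenced. The protein stability index adds up, over all gates, the read frequency multiplied by the gate number.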

Sequence | protein stability index (doa10∆) | protein stability index (pdr5∆) | protein stability index (san1∆) | protein stability index (ubr1∆)
AIQFVKENELLFGEKSI [YCS4] | 2.19 ± 0.098 | 2.09 ± 0.064 | 2.58 ± 0.16 | 1.92 ± 0.069
LKRMEILKSPHLSKSPA [SIR4] | 2.96 ± 0.06 | 2.93 ± 0.066 | 2.95 ± 0.058 | 2.78 ± 0.045
NIAFDAHMSIGCLHKGK [YML031W/NDC1] | 3.07 ± 0.15 | 2.7 ± 0.089 | 1.55 ± 0.15 | 2.27 ± 0.086
DFIQNVGRLWDQTFPIN [ECM29] | 3.13 ± 0.062 | 3.35 ± 0.057 | 3.31 ± 0.043 | 3.31 ± 0.045
DNIGEIDESLFNLLILS [YCG1] | 2.96 ± 0.13 | 3.02 ± 0.11 | 2.31 ± 0.16 | 3.1 ± 0.14
IGQAVQPKRNLSRYVKW [RPL8A] | 2.69 ± 0.065 | 2.97 ± 0.043 | 2.72 ± 0.047 | 2.66 ± 0.047
SNNQVIKMQRQFSQLND [MED6] | 3.01 ± 0.073 | 3.04 ± 0.059 | 3.03 ± 0.064 | 3.18 ± 0.06
NSGIIPGNRNADNVDKI [FAS2] | 2.52 ± 0.083 | 2.52 ± 0.1 | 3.03 ± 0.091 | 3.04 ± 0.05
PVVQVGIFIKILNDSLI [IRR1] | 1.5 ± 0.052 | 1.49 ± 0.046 | 1.86 ± 0.067 | 1.97 ± 0.038
DLLVIDSHKRIPDMSKN [SNU114] | 2.99 ± 0.073 | 3.09 ± 0.073 | 2.93 ± 0.053 | 3.24 ± 0.056
QHEQGTFEKHDRVEDIC [RRI2] | 2.89 ± 0.091 | – | – | 2.97 ± 0.13
QVATKYASLKLPNQIPG [YMR129W/POM152] | 1.69 ± 0.038 | 1.68 ± 0.041 | 1.67 ± 0.052 | 1.84 ± 0.029
HVLSRLSYISALGMMTR [RET1] | 1.35 ± 0.073 | 1.32 ± 0.053 | 1.24 ± 0.13 | 1.33 ± 0.073
KPPISDSVFSFGPKKEN [YLR335W/NUP2] | 2.82 ± 0.065 | 2.81 ± 0.057 | 2.75 ± 0.046 | 2.94 ± 0.039
KGRNNESNNKKYPIFTG [YDL088C/ASM4] | 2.87 ± 0.064 | 2.95 ± 0.063 | 2.67 ± 0.059 | 2.9 ± 0.049
TKPNVLNDPSLKIQFIL [SIN4] | 2.03 ± 0.043 | 2.36 ± 0.055 | 2.57 ± 0.049 | 2.538 ± 0.025
FRTVKEMVKDRGYFITQ [RPB5] | 2.52 ± 0.069 | 2.08 ± 0.071 | 1.72 ± 0.065 | 2.08 ± 0.041
GHSQFTSHYQNYHPNAS [RPN4] | 2.56 ± 0.049 | 2.44 ± 0.044 | 2.15 ± 0.09 | 2.22 ± 0.038
LLPNSKNVENTKNLSIL [DSN1] | 2.59 ± 0.1 | 2.5 ± 0.11 | 2.43 ± 0.12 | 2.83 ± 0.054
QQQLYGGNNNNNSTGIA [SWI1] | 3.12 ± 0.076 | 3.15 ± 0.066 | 3.25 ± 0.053 | 3.11 ± 0.045
QFTLYDRELNEVINQME [SMC3] | 3.01 ± 0.095 | 3.09 ± 0.091 | 2.94 ± 0.13 | 3.08 ± 0.046
FGEWAGMTKSNIYNFSP [BRR2] | 2.94 ± 0.083 | 3.05 ± 0.082 | 2.89 ± 0.055 | 2.98 ± 0.052
NQQPQQQQQQQQNPKFL [SWI1] | 2.96 ± 0.048 | 3.02 ± 0.04 | 2.989 ± 0.026 | 2.9 ± 0.029
VQRTMLELLNQLDGFSS [RPT5] | 2.99 ± 0.078 | 2.88 ± 0.072 | 2.83 ± 0.063 | 2.99 ± 0.05
KAPKIQRLVTPQRLQRK [RPS6A] | 2.77 ± 0.06 | 2.95 ± 0.049 | 2.91 ± 0.042 | 2.94 ± 0.039
IGLDTQQVEGKLSQMIL [RPN6] | 2.95 ± 0.066 | 3.05 ± 0.069 | 3.04 ± 0.071 | 3.06 ± 0.056
SEFLNVPFESLQGVTYP [YIL149C/MLP2] | 2.94 ± 0.086 | 2.56 ± 0.078 | 2.72 ± 0.091 | 2.96 ± 0.063

Sequence | protein stability index (doa10∆) | protein stability index (pdr5∆) | protein stability index (san1∆) | protein stability index (ubr1∆)
NKGWKLQSLNESKDLLR [SRB4] | 2.81 ± 0.13 | 2.57 ± 0.1 | 2.32 ± 0.11 | 2.93 ± 0.15
ELGNMTMLITGQRPDRA [SIN4] | 2.54 ± 0.09 | 2.83 ± 0.056 | 2.69 ± 0.09 | 2.31 ± 0.073
LRFPEHTSSGSVSFKVF [BRR2] | 1.59 ± 0.055 | 1.51 ± 0.054 | 1.33 ± 0.1 | 1.57 ± 0.06
SCQIAQPYEDRPFEGLF [RRP45] | 3.33 ± 0.24 | 3.26 ± 0.095 | 3.15 ± 0.086 | –
QTLSEKEYQCSAVIIDE [YIL149C/MLP2] | 2.64 ± 0.11 | 3.03 ± 0.098 | 3.15 ± 0.082 | 2.88 ± 0.054
QKDQDGRIPLHWSVSFQ [NAS6] | 3.29 ± 0.093 | 3.33 ± 0.079 | 3 ± 0.13 | 3.06 ± 0.053
DRRAQRVAEKRDALLKE [RPL19A] | 3.19 ± 0.12 | 3.25 ± 0.097 | 3.07 ± 0.15 | 3.44 ± 0.067
DDIFIRYLTLLSNEFTA [ECM29] | 2.14 ± 0.056 | 1.91 ± 0.051 | 2.44 ± 0.074 | 1.76 ± 0.029
DGFNKTFHDELNLKFKE [YML103C/NUP188] | 2.41 ± 0.066 | 2.38 ± 0.072 | 2.69 ± 0.087 | 2.65 ± 0.054
QEIFDANVQRLKEYQSK [RPL13A] | 3.06 ± 0.097 | 3.4 ± 0.15 | 2.93 ± 0.15 | 3.27 ± 0.093
DHINWEHIKQDYVASLN [NSL1] | 3.12 ± 0.069 | 3.23 ± 0.069 | 2.72 ± 0.058 | 2.9 ± 0.056
MGGPKQKGITSYAVSPY [QCR8] | 2.46 ± 0.17 | 2.45 ± 0.2 | 2.25 ± 0.12 | 1.63 ± 0.21
VEAIRRSNQYQRGKMHG [NUT2] | 2.85 ± 0.085 | 2.64 ± 0.076 | 2.83 ± 0.11 | 2.6 ± 0.099
PLLLVGLDKFSNIDIRV [RPS16A] | 1.83 ± 0.073 | 1.76 ± 0.049 | 1.74 ± 0.094 | 2.11 ± 0.044
ESMSYLPDPILKNFLSY [MCD1] | 2.34 ± 0.13 | 2.79 ± 0.12 | 2.5 ± 0.14 | 2.51 ± 0.098
MDLFMSTLGDCLGIKDE [GAL11] | 3.54 ± 0.25 | – | 3.38 ± 0.16 | 3.22 ± 0.2
YGGSRCANCVKERIVRA [RPL34B] | 3.36 ± 0.21 | 3.38 ± 0.089 | 2.87 ± 0.076 | 3.15 ± 0.14
PSLKDSSSNGGGSAKPS [RPC53] | 2.91 ± 0.18 | 2.82 ± 0.14 | 2.7 ± 0.27 | 2.93 ± 0.15
SNQAVGQTWNFPEVFQV [SRB8] | 3.11 ± 0.21 | 3.36 ± 0.2 | 3.11 ± 0.14 | –
PTHIWNAKRSHMMKRWG [POP1] | 2.35 ± 0.075 | 2.24 ± 0.068 | 1.98 ± 0.12 | 2.26 ± 0.067
IYAGFGRDTTDYLKNII [RPN2] | – | 2.75 ± 0.21 | 3.22 ± 0.16 | –
KLNVVGWFHSHPGYDCW [RRI1] | 2.59 ± 0.095 | 2.38 ± 0.099 | 2.61 ± 0.13 | 2.38 ± 0.064
STKSNKAKNPLTHSTPK [RPL8B] | 2.33 ± 0.069 | 2.83 ± 0.059 | 2.94 ± 0.058 | 2.73 ± 0.071
DSAKEWPQSKNCEYEDP [RPB3] | 3.6 ± 0.19 | 3.13 ± 0.13 | 3.27 ± 0.14 | 3.27 ± 0.14
SSNASFNNQGKLDLFKY [MED1] | 2.93 ± 0.039 | 3.03 ± 0.038 | 2.71 ± 0.032 | 3.04 ± 0.041
STKFDYPPMPFDGFLFG [FAS1] | 2.56 ± 0.046 | 2.63 ± 0.051 | 2.68 ± 0.063 | 2.68 ± 0.037
